Biological target: CK2β (Homo sapiens, UniProt P67870)
Test: ITC

CK2β, sequence (P67870 2-215): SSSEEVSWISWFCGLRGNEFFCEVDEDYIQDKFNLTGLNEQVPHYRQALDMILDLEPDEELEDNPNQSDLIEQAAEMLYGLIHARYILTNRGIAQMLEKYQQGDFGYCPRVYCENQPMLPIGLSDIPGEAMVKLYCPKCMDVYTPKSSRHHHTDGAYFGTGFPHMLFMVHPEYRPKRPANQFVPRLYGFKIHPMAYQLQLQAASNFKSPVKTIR

B1: CK2α (protein)
chain: MSGPVPSRARVYTDVNTHRPREYWDYESHVVEWGNQDDYQLVRKLGRGKYSEVFEAINITNNEKVVVKILKPVKKKKIKREIKILENLRGGPNIITLADIVKDPVSRTPALVFEHVNNTDFKQLYQTLTDYDIRFYMYEILKALDYCHSMGIMHRDVKPHNVMIDHEHRKLRLIDWGLAEFYHPGQEYNVRVASRYFKGPELLVDYQMYDYSLDMWSLGCMLASMIFRKEPFFHGHDNYDQLVRIAKVLGTEDLYDYIDKYNIELDPRFNDILGRHSRKRWERFVHSENQHLVSPEALDFLDKLLRYDHQSRLTAREAMEHPYFYTVVKDQARMGSSSMPGGSTPVSSANMMSGISSVPTPSPLGPLAGSPVIAAANPLGMPVPAAAGAQQ
Question: How did the Kd turn out when B1 was run?
Answer: Its Kd is 9 nM.
